Values quoted from earlier work in paper PMC3815026.

Tests used:
[1] = target: C1q (Homo sapiens) (UniProt P02745); assay: Scatchard
[2] = target: MBL (Homo sapiens) (UniProt P11226); assay: Scatchard
Sequence of MBL (Homo sapiens) (P11226 21-248): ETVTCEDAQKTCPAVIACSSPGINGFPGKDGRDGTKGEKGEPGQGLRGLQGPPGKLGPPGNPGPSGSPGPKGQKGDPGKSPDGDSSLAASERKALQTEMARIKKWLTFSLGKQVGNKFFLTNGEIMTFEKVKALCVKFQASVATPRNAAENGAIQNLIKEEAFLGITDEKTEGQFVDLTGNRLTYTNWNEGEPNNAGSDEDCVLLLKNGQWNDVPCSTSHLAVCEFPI

Sequence of serglycin (myeloma cell-derived) (P10124 28-158): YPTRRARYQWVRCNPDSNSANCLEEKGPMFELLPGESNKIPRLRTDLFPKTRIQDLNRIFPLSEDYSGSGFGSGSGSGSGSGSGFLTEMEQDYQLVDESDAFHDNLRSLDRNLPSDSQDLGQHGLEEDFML
Sequence of C1q (Homo sapiens) (P02745 23-245, chain 1 of 3): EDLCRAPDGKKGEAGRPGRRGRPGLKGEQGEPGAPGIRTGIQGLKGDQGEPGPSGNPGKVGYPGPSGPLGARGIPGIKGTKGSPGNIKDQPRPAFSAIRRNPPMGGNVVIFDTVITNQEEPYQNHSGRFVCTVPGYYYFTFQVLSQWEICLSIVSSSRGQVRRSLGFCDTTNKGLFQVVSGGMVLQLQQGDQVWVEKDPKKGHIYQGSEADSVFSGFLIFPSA
Sequence of C1q (Homo sapiens) (P02746 28-253, chain 2 of 3, further chain): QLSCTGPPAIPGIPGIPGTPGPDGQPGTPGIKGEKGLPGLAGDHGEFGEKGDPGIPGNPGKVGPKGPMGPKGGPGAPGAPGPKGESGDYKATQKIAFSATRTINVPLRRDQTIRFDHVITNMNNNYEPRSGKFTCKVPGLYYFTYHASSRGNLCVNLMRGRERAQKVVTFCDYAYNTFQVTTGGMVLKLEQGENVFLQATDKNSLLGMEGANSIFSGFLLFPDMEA
Sequence of C1q (Homo sapiens) (P02747 29-245, chain 3 of 3, further chain): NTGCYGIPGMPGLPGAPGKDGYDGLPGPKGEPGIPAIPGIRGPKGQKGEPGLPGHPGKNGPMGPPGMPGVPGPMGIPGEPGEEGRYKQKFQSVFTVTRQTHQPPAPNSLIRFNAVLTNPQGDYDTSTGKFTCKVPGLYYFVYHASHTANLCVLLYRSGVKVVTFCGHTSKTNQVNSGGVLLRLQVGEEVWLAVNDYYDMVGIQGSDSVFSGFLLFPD

Kd [1]: 40 nM
Kd [2]: 19 nM
Substance: serglycin (myeloma cell-derived) (from UniProt P10124)
